Measurements published in the Human Domainome abundance scans (Beltran et al. 2025).

B1: Homeobox protein SIX3, residues 212 to 262; numbered along this chain, O95343 (parent)
chain: CFKERTRSLLREWYLQDPYPNPSKKRELAQATGLTPTQVGNWFKNRRQRDR

Variants of: B1
Assay: abundance fitness (aPCA) (normalised: wild type 0, dead -1); higher = more abundant; growth selection in yeast, the domain comes from the species named
Settings: Homo sapiens

Abundance fitness, by site and new letter:
P18: E -0.717, F -0.672, G -0.906, H -0.028, I -0.487, K -0.136, L -0.903, M -0.501, Q -0.286, R -0.182, S -0.474, T -0.629, V -0.687
Y19: A -0.372, C -0.308, D -0.368, E -0.591, F -0.089, G -0.849, H -0.337, K -0.095, L -0.352, M -0.292, N -0.313, P -0.85, Q -0.426, R -0.184, S -0.514, T -0.278, V -0.474, W -0.374
P20: A -0.425, C -0.486, D -0.845, E -0.756, F -0.799, G -0.764, K -0.977, L -0.339, M -0.663, N -0.912, Q -0.812, R -0.819, S -1.05, T -0.838, V -0.477, W -1.13, Y -0.707
N21: A -0.159, D 0.322, F -0.499, G -0.042, H -0.171, I -0.433, K 0.23, L -0.375, M -0.277, P 0.027, Q -0.553, R -0.351, S 0.078, T 0.224, V -0.14, W -0.613, Y -0.873
P22: A -0.108, C -0.359, D -0.195, E 0.055, H -0.717, I -0.014, K -0.445, L 0.156, M -0.266, N -0.232, Q -0.212, R -0.362, S -0.107, V 0.03, W 0.125, Y -0.102
S23: A 0.072, C -0.166, D 0.175, E 0.002, F -0.343, G -0.079, H -0.356, K -0.512, L -0.342, M -0.277, N -0.249, P -0.341, Q -0.022, R -0.551, T -0.005, V -0.094, W -0.729, Y -0.761
K24: A 0.11, C -0.399, E -0.364, F -0.672, G -0.417, H -0.219, I -0.072, L -0.366, M -0.246, P -0.924, Q -0.112, R -0.137, S -0.193, T -0.097, V -0.101, W -0.896, Y -0.709
K25: A -0.326, C -0.103, D -0.753, E 0.008, G -0.579, L -0.061, M 0.004, N -0.344, P -0.84, Q -0.109, R -0.177, S -0.478, T 0.133, V -0.019, W -0.334, Y -0.316
R26: A 0.181, C -0.044, D -0.667, E -0.002, F -0.228, G -0.209, H 0.047, K -0.01, L 0.158, M -0.14, N 0.385, P -0.889, Q 0.091, S -0.045, T -0.091, V 0.047, W -0.266, Y -0.286
E27: A -0.55, C -0.819, D -0.253, F -0.276, H -0.446, I -0.486, K 0.121, L -0.515, M -0.373, N -0.947, P -0.785, Q -0.357, R -0.573, S -0.322, T -0.668, V -0.593, W -0.678
